Results from PMC6375917 (2019).

B1: His-tagged but otherwise wild type Tim50 [yeast] / Tim23 [yeast (endogenous in yeast mitochondria)] (parent complex)
chain 1: QKETKDDKPKSILTDDMLFKAGVDVDEKGQGKNEETSGEGGEDKNEPSSKSEKSRRKRQTSTDIKREKYANWFYIFSLSALTGTAIYMARDWEPQESEELKKDIDNGYTLSLMYKRFKARFNSMFTYFQEPPFPDLLPPPPPPPYQRPLTLVITLEDFLVHSEWSQKHGWRTAKRPGADYFLGYLSQYYEIVLFSSNYMMYSDKIAEKLDPIHAFVSYNLFKEHCVYKDGVHIKDLSKLNRDLSKVIIIDTDPNSYKLQPENAIPMEPWNGEADDKLVRLIPFLEYLATQQTKDVRPILNSFEDKKNLAEEFDHRVKKLKDKFYGDHKSGGNWAMTALGLGNSLGGSTKFPLDLIHEEGQKNYLMFMKMIEEEKEKIRIQQEQMGGQTFTLKDYVEGNLPSPEEQMKIQLEKQKEVDALFEEEKKKKKIAESK
chain 2: MSWLFGDKTPTDDANAAVGGQDTTKPKELSLKQSLGFEPNINNIISGPGGMHVDTARLHPLAGLDKGVEYLDLEEEQLSSLEGSQGLIPSRGWTDDLCYGTGAVYLLGLGIGGFSGMMQGLQNIPPNSPGKLQLNTVLNHITKRGPFLGNNAGILALSYNIINSTIDALRGKHDTAGSIGAGALTGALFKSSKGLKPMGYSSAMVAAACAVWCSVKKRLLEK

Variants of: B1
Experiment: pull-down (Ni-NTA agarose beads), immunoblot quantification; T, 10% of total material. B, 100% of bound material.; parent: 100; read off a plot
Variant chain 1 QKETKDDKPKSILTDDMLFKAGVDVDEKGQGKNEETSGEGGEDKNEPSSKSEKSRRKRQTSTDIKREKYANWFYIFSLSALTGTAIYMARDWEPQESEELKKDIDNGYTLSLMYKRFKARFNSMFTYFQEPPFPDLLPPPPPPPYQRPLTLVITLEDFLVHSEWSQKHGWRTAKRPGADYFLGYLSQYYEIVLFSSNYMMYSDKIAEKLDPIHAFVSYNLFKEHCVYKDGVHIKVLSKLNRDLSKVIIIDTDPNSYKLQPENAIPMEPWNGEADDKLVRLIPFLEYLATQQTKDVSPILNSFEDKKNLAEEFDHRVKKLKDKFYGDHKSGGNWAMTALGLGNSLGGSTKFPLDLIHEEGQKNYLMFMKMIEEEKEKIRIQQEQMGGQTFTLKDYVEGNLPSPEEQMKIQLEKQKEVDALFEEEKKKKKIAESK [chain 1 D235V, chain 1 R296S] has a percent of parent of roughly 12%.
With chain 1 QKETKDDKPKSILTDDMLFKAGVDVDEKGQGKNEETSGEGGEDKNEPSSKSEKSRRKRQTSTDIKREKYANWFYIFSLSALTGTAIYMARDWEPQESEELKKDIDNGYTLSLMYKRFKARFNSMFTYFQEPPFPDLLPPPPPPPYQRPLTLVITLEDFLVHSEWSQKHGWRTAKRPGADYFLGYLSQYYEIVLFSSNYMMYSDKIAEKLDPIHAFVSYNLFKEHCVYKDGVHIKVLSKLNRDLSKVIIIDTDPNSYKLQPENAIPMEPWNGEADDKLVRLIPFLEYLATQQTKDVRPILNSFEDKKNLAEEFDHRVKKLKDKFYGDHKSGGNWAMTALGLGNSLGGSTKFPLDLIHEEGQKNYLMFMKMIEEEKEKIRIQQEQMGGQTFTLKDYVEGNLPSPEEQMKIQLEKQKEVDALFEEEKKKKKIAESK [chain 1 D235V] the percent of parent was roughly 37%.
chain 1 QKETKDDKPKSILTDDMLFKAGVDVDEKGQGKNEETSGEGGEDKNEPSSKSEKSRRKRQTSTDIKREKYANWFYIFSLSALTGTAIYMARDWEPQESEELKKDIDNGYTLSLMYKRFKARFNSMFTYFQEPPFPDLLPPPPPPPYQRPLTLVITLEDFLVHSEWSQKHGWRTAKRPGADYFLGYLSQYYEIVLFSSNYMMYSDKIAEKLDPIHAFVSYNLFKEHCVYKDGVHIKDLSKLNRDLSKVIIIDTDPNSYKLQPENAIPMEPWNGEADDKLVRLIPFLEYLATQQTKDVSPILNSFEDKKNLAEEFDHRVKKLKDKFYGDHKSGGNWAMTALGLGNSLGGSTKFPLDLIHEEGQKNYLMFMKMIEEEKEKIRIQQEQMGGQTFTLKDYVEGNLPSPEEQMKIQLEKQKEVDALFEEEKKKKKIAESK [chain 1 R296S] gave a percent of parent of roughly 115%.
